# Results as given in the supplement of paper PMC10567573.
# B1: RIPK4 (parent)
# chain: VSVNAQTLDGRTPLHLAAQRGHYR
# Variants of: B1
# Test: protein stability index of a GFP-peptide fusion (GPS, HEK-293T) (PSI 1-6); higher = more stable
# Settings: c terminus: a fixed tail appended
# 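Further: lentivirally expressed fusions sorted by FACS into six bins by GFP to DsRed ratio, PSI derived from sequencing read proportions per bin multiplied by bin number.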
row,Variant,protein stability index
1,V1G,3.76
2,V1D,4.66
3,V1R,4.06
4,V1P,3.85
5,V1Y,3.59
6,V1I,3.54
7,V1Q,3.99
8,V1S,3.62
9,V1N,4.12
10,V1F,3.39
11,V1L,3.98
12,V1K,3.74
13,V1T,3.78
14,G21F,2.34
15,G21C,2.44
16,G21H,3.26
17,G21P,3.49
18,G21N,2.88
19,G21T,2.88
20,G21I,2.24
21,G21V,2.93
22,G21A,2.77
23,G21L,2.94
24,G21S,2.66

row,Variant,protein stability index
1,G21M,2.68
2,G21Q,3.35
3,G21R,3.47
4,G21Y,2.81
5,G21W,2.05
6,A5G,3.02
7,A5R,2.94
8,A5T,3.52
9,A5E,3.73
10,A5N,3.53
11,A5H,3.36
12,A5W,2.83
13,A5D,4.28
14,A5M,2.77
15,A5Y,3.1
16,A5L,2.76
17,N4C,3.18
18,N4D,3.86
19,N4R,3.21
20,N4V,2.53
21,N4H,3.46
22,N4W,2.06
23,N4L,2.69
24,N4I,2.44

row,Variant,protein stability index
1,Y23C,3.43
2,Y23G,4.25
3,Y23H,3.42
4,Y23E,4.39
5,Y23A,3.92
6,Y23I,3.39
7,Y23M,4.03
8,Y23K,4.12
9,Y23T,4.12
10,Y23V,4
11,Y23Q,3.96
12,Y23S,3.83
13,Y23R,4.19
14,Y23L,3.51
15,S2T,2.91
16,S2Y,2.82
17,S2H,2.42
18,S2V,2.22
19,S2A,3.24
20,S2C,2.93
21,S2Q,3.22
22,S2L,2.86
23,S2K,3.41
24,S2F,2.57

row,Variant,protein stability index
1,S2R,3.33
2,S2E,3.27
3,S2W,2.3
4,S2N,3.73
5,S2M,2.89
6,Q19W,2.12
7,Q19K,3.95
8,Q19V,2.28
9,Q19C,2.97
10,Q19E,3.18
11,Q19D,3.12
12,Q19Y,2.63
13,Q19G,3.53
14,Q19M,2.88
15,Q19R,4.04
16,Q19A,3.44
17,Q19N,3.41
18,Q19H,3.27
19,Q19S,3.08
20,T12S,3.35
21,T12D,3.68
22,T12Y,2.4
23,T12G,3.05
24,T12N,2.96

row,Variant,protein stability index
1,T12F,2.61
2,T12K,3.72
3,T12V,3.13
4,T12M,3.19
5,T12H,2.68
6,T12A,3.48
7,T12W,2.82
8,A18E,3.13
9,A18T,3.08
10,A18L,2.64
11,A18F,1.89
12,A18V,2.97
13,A18M,2.42
14,A18H,3.13
15,A18I,2.75
16,A18N,3.46
17,A18Y,2.19
18,A18R,3.32
19,A18D,3.31
20,A18G,3.5
21,A18S,3.38
22,A17K,3.41
23,A17G,3.51
24,A17T,3.45

row,Variant,protein stability index
1,A17F,2.26
2,A17L,3.02
3,A17Q,3.36
4,A17R,3.11
5,A17C,3.15
6,A17I,2.45
7,A17W,2.45
8,A17S,3.34
9,A17E,3.22
10,A17Y,2.54
11,R24W,2.48
12,R24V,2.43
13,R24S,3.01
14,R24D,3.3
15,R24T,2.99
16,R24K,3.11
17,R24L,2.13
18,R24Y,2.66
19,R24Q,2.82
20,R24H,2.69
21,R24E,2.87
22,R24G,3.1
23,R24I,2.05
24,H15M,2.78

row,Variant,protein stability index
1,H15P,3.94
2,H15K,3.24
3,H15T,3.73
4,H15G,3.08
5,H15R,3.89
6,H15I,2.79
7,H15E,3.49
8,H15V,3.2
9,H15C,3.01
10,H15N,3.64
11,H15F,2.58
12,H15S,3.74
13,H15Y,2.56
14,H15D,3.93
15,D9L,2.81
16,D9A,3.09
17,D9I,2.33
18,D9E,3.78
19,D9W,2.35
20,D9C,3.14
21,D9T,3.22
22,D9H,3.15
23,D9S,3.04
24,D9F,2.25

row,Variant,protein stability index
1,D9K,2.79
2,D9V,2.9
3,D9M,2.62
4,D9P,3.49
5,D9G,3.02
6,P13S,3.3
7,P13G,2.94
8,P13I,2.17
9,P13Y,1.93
10,P13T,2.92
11,P13R,3.1
12,P13V,2.84
13,P13F,2.34
14,P13N,3.38
15,P13H,2.9
16,P13W,1.75
17,P13L,2.25
18,P13A,3.33
19,P13K,2.78
20,P13Q,3.15
21,V3F,2.96
22,V3C,3.12
23,V3E,4.86
24,V3T,3.53

row,Variant,protein stability index
1,V3Q,4.22
2,V3G,3.9
3,V3H,4.67
4,V3P,3.83
5,V3M,3.73
6,V3S,3.97
7,V3L,3.35
8,V3D,4.13
9,V3R,4.33
10,R11W,2.85
11,R11V,2.97
12,R11Q,3.62
13,R11P,3.38
14,R11A,3.5
15,R11K,3.51
16,R11G,2.99
17,R11S,3.12
18,R11I,2.73
19,R11N,3.42
20,R11H,3.11
21,R11E,3.78
22,R11T,2.71
23,R11F,2.65
24,L16F,3.11

row,Variant,protein stability index
1,L16K,3.88
2,L16Q,3.83
3,L16E,4.29
4,L16M,3.34
5,L16T,3.64
6,L16C,3.19
7,L16A,3.82
8,L16D,3.8
9,L16P,3.73
10,L16N,3.97
11,L16I,3.42
12,L16G,3.45
13,L16H,3.28
14,L16W,3.09
15,L16R,3.96
16,L16V,3.5
17,T7R,3.32
18,T7Y,2.97
19,T7S,3.29
20,T7F,2.11
21,T7K,3.36
22,T7V,3.23
23,T7N,3.64
24,T7H,3.12

row,Variant,protein stability index
1,T7C,2.8
2,T7I,2.63
3,T7P,3.36
4,T7Q,4.04
5,T7E,3.94
6,T7L,3.2
7,T7D,3.77
8,R20W,2.5
9,R20I,2.58
10,R20Q,3.12
11,R20M,2.29
12,R20F,2.14
13,R20A,3.02
14,R20V,2.85
15,R20Y,2.41
16,R20H,2.53
17,R20G,2.96
18,R20P,2.95
19,R20T,2.85
20,R20S,2.65
21,R20K,3
22,R20L,2.13
23,R20C,2.69
24,Q6L,3.69

row,Variant,protein stability index
1,Q6Y,2.59
2,Q6D,3.93
3,Q6W,2.49
4,Q6F,2.22
5,Q6V,2.68
6,Q6K,3.21
7,Q6H,3.52
8,Q6A,3.43
9,Q6I,2.69
10,Q6P,3.96
11,Q6T,3.44
12,Q6C,2.62
13,Q6M,2.87
14,Q6R,3.02
15,G10N,3.29
16,G10S,3.57
17,G10T,3.21
18,G10D,3.69
19,G10F,2.4
20,G10W,2.48
21,G10I,3.38
22,G10R,3.55
23,G10L,2.81
24,G10C,3.05

row,Variant,protein stability index
1,G10V,3.32
2,L14H,3.96
3,L14R,3.7
4,L14K,3.96
5,L14V,3.4
6,L14P,4
7,L14Y,3.21
8,L14E,4.47
9,L14G,3.52
10,L14A,4.07
11,L14W,2.88
12,L14M,3.26
13,L14Q,3.75
14,L14I,3.39
15,L14T,3.5
16,H22Y,2.47
17,H22M,2.96
18,H22N,3.48
19,H22W,2.23
20,H22G,4.53
21,H22F,2.96
22,H22Q,3.56
23,H22I,2.83
24,H22E,3.27

row,Variant,protein stability index
1,H22K,3.89
2,H22L,2.69
3,H22T,3.57
4,H22V,3.79
5,H22P,2.89
6,H22A,3.3
7,L8I,3.58
8,L8P,3.95
9,L8Y,3.07
10,L8Q,4.05
11,L8H,3.73
12,L8C,3.33
13,L8V,3.92
14,L8M,3.75
15,L8S,3.5
16,L8K,3.58
17,L8G,4.26
18,L8D,3.74
19,L8N,3.94
20,L8T,3.77
21,L8F,3.29
22,L8R,3.37
